Test results from patent US7067117 (CAMBRIDGE UNIVERSITY TECHNICAL SERVICES, dated 2006).
Like-named read-outs stand apart in the source and are kept apart here. Values belong to the binder of their own block, whether it stands above or below them. Bridge positions count the residues as written; N and C are the ends. Square brackets hold non-standard residues; d marks the D form. Ends that are not written are not given here. * marks the point of attachment. Biotin = O=C1N[C@H]2[C@H](CS[C@H]2CCCCC(=O)*)N1

Assays:
[1] = target: T1, Duffy Antigen Receptor for Chemokines (DARC) (human, UniProt Q16570 1-336); assay: DARC binding
T1 chain: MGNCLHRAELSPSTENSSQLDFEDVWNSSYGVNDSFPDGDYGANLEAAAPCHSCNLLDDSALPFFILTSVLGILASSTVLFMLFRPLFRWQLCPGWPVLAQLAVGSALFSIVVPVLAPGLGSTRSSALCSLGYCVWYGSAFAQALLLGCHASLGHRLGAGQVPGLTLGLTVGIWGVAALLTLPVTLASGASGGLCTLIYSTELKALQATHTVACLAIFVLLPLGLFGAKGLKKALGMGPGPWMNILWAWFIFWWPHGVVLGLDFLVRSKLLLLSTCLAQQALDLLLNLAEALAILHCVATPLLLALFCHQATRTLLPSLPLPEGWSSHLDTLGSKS

[2] = target: T2, Duffy Antigen Receptor for Chemokines (DARC) (human, UniProt Q16570 1-336); assay: ka for binding to red blood cells divided by ka for binding to THP-1 cells
T2 construct: whole, on cells
T2 sequence (looked up): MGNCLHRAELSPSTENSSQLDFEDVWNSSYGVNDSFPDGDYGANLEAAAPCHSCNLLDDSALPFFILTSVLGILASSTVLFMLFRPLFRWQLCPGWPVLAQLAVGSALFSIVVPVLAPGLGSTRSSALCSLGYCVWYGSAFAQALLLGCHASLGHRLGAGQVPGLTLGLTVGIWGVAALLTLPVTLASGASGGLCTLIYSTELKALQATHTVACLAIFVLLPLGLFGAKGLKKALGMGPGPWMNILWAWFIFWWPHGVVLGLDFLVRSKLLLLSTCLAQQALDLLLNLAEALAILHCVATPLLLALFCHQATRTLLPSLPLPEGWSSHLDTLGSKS

[3] = target: chemokine receptors on THP-1 cells; assay: binding to chemokine receptors on THP-1 cells; given as 'association constant'
[4] = target: chemokine receptors on THP-1 cells; assay: estimated ka for binding to THP-1 cells, printed under 'AVERAGE ED50 (µM)'
[5] = target: chemokine receptors on THP-1 cells; assay: cell-based or functional assay
[6] = target: T2, Duffy Antigen Receptor for Chemokines …; assay: estimated ka for binding to red blood cells divided by average inhibitory ED50 (THP-1 migration)
Experimental: Counts associated with the cells are then determined by gamma-counting scintigraphy. […] Furthermore, Scatchard analysis confirms the presence of a single high affinity binding site with 500–1000 copies per cell, consistent with the known properties of DARC.
The DARC specificity ratio is also determined. The DARC specificity ratio is defined as the estimated ka for association with DARC divided by the $ED50$ for biological activity. […] Thus, it may be difficult to achieve biologically active (as a chemokine inhibitor) concentrations of these peptides in vivo without further modifications of the peptide.
Footnotes [a]'CC-specificity' is the average inhibitory ED$50$ versus SDF1 and IL8 divided by average inhibitory ED$50$ versus MCP-1 and MIP1α. [b]'Duffy selectivity' is the estimated ka for binding to red blood cells divided by average inhibitory ED$50$ versus each of the chemokines (except for peptide 2; see footnote d below). [c]'Average ED$50$' is the average inhibitory ED$50$ for inhibition of THP-1 migration induced by each of the chemokines (except for peptide 2; see footnote e below). [d]For the peptide 2 family, the 'average ED$50$' is the estimated ka for binding to THP-1 cells. [e]For the peptide 2 family, the 'Duffy selectivity' is calculated as the ka for binding to red blood cells divided by the ka for binding THP1-1 cells. [f]For tripeptide derivatives so marked, the peptide is highly specific for one of the four exemplary chemokines.

[7] = target: chemokine receptors on THP-1 cells; assay: cell-based or functional assay; remark: listed apart in the source
[8] = target: T3, Duffy Antigen Receptor for Chemokines (DARC) (human) (UniProt Q16570); assay: estimated ka for binding to red blood cells divided by average inhibitory ED50 (THP-1 migration)
T3 sequence (looked up): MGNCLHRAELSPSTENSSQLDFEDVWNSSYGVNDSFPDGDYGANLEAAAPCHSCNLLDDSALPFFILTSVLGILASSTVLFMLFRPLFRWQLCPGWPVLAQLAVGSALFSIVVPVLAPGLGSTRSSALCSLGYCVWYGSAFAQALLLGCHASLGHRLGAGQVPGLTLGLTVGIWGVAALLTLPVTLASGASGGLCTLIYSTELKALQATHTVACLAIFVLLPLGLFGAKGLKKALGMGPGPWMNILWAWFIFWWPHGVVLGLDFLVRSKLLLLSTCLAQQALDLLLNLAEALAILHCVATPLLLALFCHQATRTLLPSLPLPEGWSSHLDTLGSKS

[9] = target: T3, Duffy Antigen Receptor for Chemokines (DARC) (human); assay: DARC binding on red blood cells; given as 'association constant'
[10] = target: T4, Duffy Antigen Receptor for Chemokines (DARC) (human), Q16570; assay: Duffy binding
T4 chain: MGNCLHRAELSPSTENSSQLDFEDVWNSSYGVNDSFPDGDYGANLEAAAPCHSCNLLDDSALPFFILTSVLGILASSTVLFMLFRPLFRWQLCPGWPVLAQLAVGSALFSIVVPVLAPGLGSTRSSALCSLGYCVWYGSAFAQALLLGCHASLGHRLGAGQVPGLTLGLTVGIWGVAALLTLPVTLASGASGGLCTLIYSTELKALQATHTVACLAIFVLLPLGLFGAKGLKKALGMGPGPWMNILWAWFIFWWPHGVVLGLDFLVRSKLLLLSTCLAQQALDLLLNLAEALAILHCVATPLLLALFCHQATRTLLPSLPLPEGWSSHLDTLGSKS

CXCR4, P61073 = target: T5, CXCR4, P61073; assay: method not described; given as 'affinity constant'
T5 chain: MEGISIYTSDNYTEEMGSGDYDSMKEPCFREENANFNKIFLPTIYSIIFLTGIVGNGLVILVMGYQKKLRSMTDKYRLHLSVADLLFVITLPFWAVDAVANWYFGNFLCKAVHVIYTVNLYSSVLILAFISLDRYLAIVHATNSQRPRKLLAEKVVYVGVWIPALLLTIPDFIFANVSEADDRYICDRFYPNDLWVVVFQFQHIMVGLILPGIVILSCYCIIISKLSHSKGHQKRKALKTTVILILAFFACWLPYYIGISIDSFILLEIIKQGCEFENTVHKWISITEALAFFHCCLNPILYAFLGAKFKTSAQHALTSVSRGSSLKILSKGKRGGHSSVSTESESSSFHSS

CCR5, P51681 = assay: method not described; given as 'affinity constant'
[11] = target: T4, Duffy Antigen Receptor for Chemokines …; assay: Duffy binding, LRD against LFL peptide 2(1-15)[MCP-1]
[12] = target: T4, Duffy Antigen Receptor for Chemokines …; assay: DARC binding; details: modification not given
[13] = target: chemokine receptors on THP-1 cells; assay: biotinylated peptide binding to the surface of THP-1 cells; printed as 'ka' in µM

Sequence of CCR5, P51681 (P51681 whole entry): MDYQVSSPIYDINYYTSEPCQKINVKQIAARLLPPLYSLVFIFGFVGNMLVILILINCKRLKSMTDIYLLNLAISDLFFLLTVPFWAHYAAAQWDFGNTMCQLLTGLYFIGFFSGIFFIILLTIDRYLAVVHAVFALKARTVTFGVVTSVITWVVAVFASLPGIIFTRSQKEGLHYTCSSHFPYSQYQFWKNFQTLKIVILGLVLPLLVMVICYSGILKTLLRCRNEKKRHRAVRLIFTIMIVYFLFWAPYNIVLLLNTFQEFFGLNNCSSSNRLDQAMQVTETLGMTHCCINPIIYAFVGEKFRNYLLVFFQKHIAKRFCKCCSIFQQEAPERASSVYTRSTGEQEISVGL

Kd [1]: > 100 µM
Binder: SYRRI

Kd [1]: > 100 µM
Duffy selectivity [2]: > 100 ratio
Kd [3]: 0.1 to 0.9 µM
Kd [4]: 1 to 10 µM
B1: peptide 2(1-14)[MIP1α] (peptide)
peptide: DYFETSSQCSKPGV
notes: also called Pep2[MIP1α]; Pep2(1-14)[MIP1α]

ED50 for inhibition of MCP-1 induced THP-1 migration [7]: 0.001 µM
average ED50 for inhibition of THP-1 migration induced by each of the chemokines [7]: 0.1 µM
Kd [3]: 0.1 to 0.5 µM
Duffy selectivity [8]: > 100
Kd [9]: 90 µM
Binder: [dC][dQ][dI][dW][dK][dQ][dK][dP][dD][dL][dC] (disulfide 1-11) [CRD-Cys13Leu4Ile11peptide 3(3-12)[MCP-1]]

average ED50 for inhibition of THP-1 migration induced by each of the chemokines [5]: 2 µM
Binder: WIQ

Kd [10]: 25 µM
Kd (CXCR4, P61073): < 0.1 µM
Kd (CCR5, P51681): < 0.1 µM
fold decrease in Duffy binding against the LFL peptide [11]: 100 fold
Kd [12]: 18 µM
Binder: VAEKPCKSSTIRRYS (not fully specified) [LRD peptide 2(1-15)[MCP-1]]

Duffy selectivity [8]: 5.32
ED50 for inhibition of THP-1 migration versus IL8 [5]: 17 µM
ED50 for inhibition of THP-1 migration versus MCP1 [5]: 33 µM
ED50 for inhibition of THP-1 migration versus MIP1α [5]: 25 µM
ED50 for inhibition of THP-1 migration versus SDF1α [5]: 19 µM
average ED50 for inhibition of THP-1 migration induced by each of the chemokines [5]: 24 µM
Binder: EICADP [peptide 3(1-6)[MCP-1]]

Kd [13]: 10 µM
Binder: Biotin-EICADPKQKWVQ [N-terminally biotinylated derivative of peptide 3(1-12)[MCP-1]]

Kd [1]: > 100 µM
Binder: TSSKC

Continued, binder first:

Binder: KEN
% inhibition of migration induced by IL-8 at 100 µM tripeptide [5]: 70%
% inhibition of migration induced by MCP-1 at 100 µM tripeptide [5]: 21%

B2: peptide 3(3-12)[MCP-1] (peptide)
peptide: CADPKQKWVQ
notes: also called Pep3[3-12]; Pep3(3-12)[MCP-1]
ED50 for inhibition of THP-1 migration versus IL8 [5]: 9 µM
ED50 for inhibition of THP-1 migration versus MCP1 [5]: 8 µM
ED50 for inhibition of THP-1 migration versus MIP1α [5]: 7 µM
ED50 for inhibition of THP-1 migration versus SDF1α [5]: 9 µM
average ED50 for inhibition of THP-1 migration induced by each of the chemokines [5]: 8 µM
Duffy selectivity [6]: 1.21 ratio

Binder: CSKPGV
Kd [1]: > 100 µM

Binder: [dC][dQ][dV][dW][dK][dQ][dK][dP][dD][dA][dC] (disulfide 1-11 (inferred); not fully specified; printed as -CQVWKQKPDAC--) [CRD-Cys13pep3[3-12]]
Duffy selectivity [8]: 8.82
average ED50 for inhibition of THP-1 migration induced by each of the chemokines [5]: 0.8 µM

Binder: CPKEAV
Kd [1]: > 100 µM

Binder: DYFETSSQC
Kd [1]: > 100 µM
